Changes are numbered by the printed parent chain. In names and notes the source's numbering stands.
Substrate: O=C(O)[C@@H]1CCC=N1
Experiment: purified protein
Type: biochemical, Geobacter sulfurreducens
Conditions: GSALDH site; NAD+ fixed at saturating concentration; L-P5C 0-3.5 mM

B1: GsPutA (Geobacter sulfurreducens PCA) (protein)
chain: MLNSELNTKIVNRGKEFFGSISGEKPSLFNKGAWMGKAMDWSMQNEQFKIQMFRFVDVFPSLTTSKLLTEHIREYFGNEQDMPAFMSTGAKVAGMLGSFGGAVLNKVLTSNIEEMARQFIVGETTKEAVKNLEKLRKDGFAAVVDVLGEATLSEEEAEVYTNTYLELLEALKKEQGSWKGLPGKGGDPGLDWGHAPKVNIAVKPTALFCLANPQDFEGSVVAILDRMRRIFKKVMELNGFLCIDMESYRHKEIILEVFRRLKLEYRDYPHLGIVLQAYLKDNDKDLDDLLAWAKEHKVQISVRLVKGAYWDYETVKAKQNDWEVPVWTIKAESDAAYERQARKILENHQICHFACASHNIRTISAVMEMARELNVPEDRYEFQVLYGMAEPVRKGILKVAGRIRLYAPYGNMVPGMGYLVRRLLENTANESFLRQSFAEDAQIERLLEDPAVTVERERAARAAKPKKERKGLGGLPPFNNEAMVDFTRADHRAAFPKHIAQVRTQLGKTYPLFINGKEVRTNDLIPTVNPNKPSEVLGQICQAGTTEVGDAIAAAKAAFPAWRDTDPRTRAEYLLKAAQAARKRLFELSAWQVLEIGKQWDQAYADVTEAIDFLEYYAREMIRLGQPQRVGHAPGELNHYFYEPKGVAAVIAPWNFPLAISMGMASAAIVTGNCVVFKPSGITSIIGWHLVELFREAGLPEGVFNFTPGRGSVMGDYLVDHPDISLIAFTGSMETGLRIIERAAKVHPGQANVKKIISEMGGKNAIIIDDDADLDEAVPHVLYSAFGFQGQKCSACSRVIVLDAVYDKFIERLVSMAKATKVGPSEDPANYMGAVADDKAMKSIKEYAEIGKREGHVLYESPVPAGEGYFVPMTIIGGIKPEHRIAQEEIFGPVLAVMRAKDFDQAIEWANSTQFALTGGIFSRSPEHLAKARREFRVGNLYINRNNTGALVERQPFGGARMSGVGTKAGGPDYLLHFMDPRVVTENTMRRGFAPIEEDDDWVD
Km: 30.0 ± 13.0 µM
kcat: 4.7 ± 0.2 s⁻¹

B2: GsPutA (Geobacter sulfurreducens PCA; A206W) (protein)
chain: B1 chain with A206W
Km: 65.0 ± 18.3 µM
kcat: 6.0 ± 0.2 s⁻¹
